Experimental data taken from publication PMC3045619 (Nucleic Acids Research, 2010).

Experiments:
[1] = biological target: χ subunit of DNA polymerase III of E. coli, wild-type (E. coli, UniProt P28905 1-147); assay: cross-linking
χ K124A = χ K124A (E. coli, UniProt P28905 1-147, K124A); assay: cross-linking

B1: SSB-Carb, peptide containing the last nine amino acids of EcoSSB (peptide)
peptide: WMDFDDDIPF
[1]
  binding result: binds
χ K124A
  binding result: binds
